Source: patent US20260116991A1 (HAINAN SIMCERE ZAIMING PHARMACEUTICAL, published 2026)
Substitutions are numbered along the chain they refer to. Values belong to the binder of their own block, whether it stands above or below them.

How the values were obtained:
[1] = target: biotinylated labeled human GPC3 protein (produced in-house) (human, UniProt P51654 25-559, limits assumed, biotinylated (Dojindo, Cat. No. LK03); sites not stated); experiment: ELISA, biotinylated human GPC3 protein
[2] = target: T1, human GPC3 on CHO-K1-human GPC3 cells (CHOK1-hGPC3.2B5) (human, UniProt P51654 25-554); experiment: FACS, CHOK1-hGPC3.2B5 cells;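 note: flow cytometry of humanized antibodies binding to the cells over one hour in the cold, read as cell mean fluorescence intensity, with EC50 obtained by curve fitting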
T1 construct: whole, on cells

OD450 at 0.0004 nM [1]: 0.052 OD450
OD450 at 0.002 nM [1]: 0.064 OD450
OD450 at 0.011 nM [1]: 0.098 OD450
OD450 at 0.056 nM [1]: 0.25 OD450
OD450 at 0.28 nM [1]: 0.718 OD450
OD450 at 1.39 nM [1]: 1.09 OD450
OD450 at 6.94 nM [1]: 1.45 OD450
OD450 at 34.72 nM [1]: 1.29 OD450
EC50 [2]: 4.61 nM
Max MFI [2]: 18200 MFI
B2: hAb007LH1L1c (antibody, human IgG1, V domains shown)
VH: EVQLVQSGAEVKKPGSSVKVSCKASGYTFSDYEMHWVRQAPGQGLEWMGTIDPETGNTAYNQKFKGRVTITADKSTSTAYMELSSLRSEDTAVYYCTRPYSLTYWGQGTLVTVSS
VL: DIVMTQTPLSLPVTPGEPASISCRSSQSFVHSNADTYLQWYLQKPGQSPQLLIYKVSNRFSGVPDRFSGSGSGTDFTLKISRVEAEDVGVYYCFQGSHVPYTFGQGTKLEIK
notes: Humanized F3.81.19; VH H1 + VL L1c; expressed as human IgG1

OD450 at 0.0008 nM [1]: 0.157 OD450
OD450 at 0.004 nM [1]: 0.381 OD450
OD450 at 0.02 nM [1]: 1.08 OD450
OD450 at 0.11 nM [1]: 2 OD450
OD450 at 0.53 nM [1]: 2.54 OD450
OD450 at 2.67 nM [1]: 2.44 OD450
OD450 at 13.33 nM [1]: 2.59 OD450
OD450 at 66.66 nM [1]: 2.61 OD450
EC50 [2]: 0.647 nM
Max MFI [2]: 4980 MFI
B3: hAb003LH3L1b (antibody, human IgG1, V domains shown)
VH: B2 VH with T28R, S30T, N61T, K65M, G66D, I70L, P99G, L102F
VL: B2 VL with S28N, F29I, A34R, D35N, Y54F, Y101F
notes: Humanized F2.154.1; VH H3 + VL L1b; expressed as human IgG1

OD450 at 0.0008 nM [1]: 0.078 OD450
OD450 at 0.004 nM [1]: 0.202 OD450
OD450 at 0.02 nM [1]: 0.442 OD450
OD450 at 0.11 nM [1]: 0.84 OD450
OD450 at 0.53 nM [1]: 1.1 OD450
OD450 at 2.67 nM [1]: 1.17 OD450
OD450 at 13.33 nM [1]: 1.1 OD450
OD450 at 66.66 nM [1]: 1.17 OD450
EC50 [2]: 0.563 nM
Max MFI [2]: 4500 MFI
B8: hAb005LH1L1 (antibody, human IgG1, V domains shown)
VH: EVQLVQSGAEVKKPGASVKVSCKASGYTFTDYEMHWVRQAPGQGLEWMGAIDPETGNTAYIQKFKGRVTMTTDKSTSTAYMELRSLRSDDTAVYYCTRFYSYSHWGQGTTVTVSS
VL: B2 VL with F29L, A34G, D35N, Q39H, F94S, G96N, S97T, Y101P, Q105G, L109V
notes: Humanized F3.54.12; VH H1 + VL L1; expressed as human IgG1

OD450 at 0.0008 nM [1]: 0.079 OD450
OD450 at 0.004 nM [1]: 0.162 OD450
OD450 at 0.02 nM [1]: 0.441 OD450
OD450 at 0.11 nM [1]: 0.715 OD450
OD450 at 0.53 nM [1]: 0.923 OD450
OD450 at 2.67 nM [1]: 1.1 OD450
OD450 at 13.33 nM [1]: 1.07 OD450
OD450 at 66.66 nM [1]: 1.12 OD450
EC50 [2]: 0.734 nM
Max MFI [2]: 4700 MFI
B9: hAb005LH3L1 (antibody, human IgG1, V domains shown)
VH: B8 VH with M48I, V68A, M70L
VL: B2 VL with F29L, A34G, D35N, Q39H, F94S, G96N, S97T, Y101P, Q105G, L109V
notes: Humanized F3.54.12; VH H3 + VL L1; expressed as human IgG1

Continued, binder first:

B1: GC33 IgG (antibody, V domains shown)
VH: QVQLVQSGAEVKKPGASVKVSCKASGYTFTDYEMHWVRQAPGQGLEWMGALDPKTGDTAYSQKFKGRVTLTADKSTSTAYMELSSLTSEDTAVYYCTRFYSYTYWGQGTLVTVSS
VL: DVVMTQSPLSLPVTPGEPASISCRSSQSLVHSNRNTYLHWYLQKPGQSPQLLIYKVSNRFSGVPDRFSGSGSGTDFTLKISRVEAEDVGVYYCSQNTHVPPTFGQGTKLEIKR
notes: Control antibody expressed as complete IgG; also called codrituzumab
OD450 at 0.0004 nM [1]: 0.054 OD450
OD450 at 0.002 nM [1]: 0.067 OD450
OD450 at 0.011 nM [1]: 0.127 OD450
OD450 at 0.056 nM [1]: 0.442 OD450
OD450 at 0.28 nM [1]: 0.993 OD450
OD450 at 1.39 nM [1]: 1.5 OD450
OD450 at 6.94 nM [1]: 1.36 OD450
OD450 at 34.72 nM [1]: 1.3 OD450
EC50 [2]: 2.19 nM
Max MFI [2]: 17000 MFI

B4: hAb003LH3L1a (antibody, human IgG1, V domains shown)
VH: B2 VH with T28R, S30T, N61T, K65M, G66D, I70L, P99G, L102F
VL: B2 VL with S28N, F29I, N33D, A34G, D35N, Y54F, Y101F
notes: Humanized F2.154.1; VH H3 + VL L1a; expressed as human IgG1
OD450 at 0.0008 nM [1]: 0.086 OD450
OD450 at 0.004 nM [1]: 0.128 OD450
OD450 at 0.02 nM [1]: 0.423 OD450
OD450 at 0.11 nM [1]: 1.3 OD450
OD450 at 0.53 nM [1]: 2.04 OD450
OD450 at 2.67 nM [1]: 2.13 OD450
OD450 at 13.33 nM [1]: 2.15 OD450
OD450 at 66.66 nM [1]: 2.48 OD450
EC50 [2]: 6.02 nM
Max MFI [2]: 2240 MFI

B5: hAb005LH2L1 (antibody, human IgG1, V domains shown)
VH: B8 VH with M70L
VL: B2 VL with F29L, A34G, D35N, Q39H, F94S, G96N, S97T, Y101P, Q105G, L109V
notes: Humanized F3.54.12; VH H2 + VL L1; expressed as human IgG1
OD450 at 0.0008 nM [1]: 0.083 OD450
OD450 at 0.004 nM [1]: 0.185 OD450
OD450 at 0.02 nM [1]: 0.464 OD450
OD450 at 0.11 nM [1]: 0.812 OD450
OD450 at 0.53 nM [1]: 1.01 OD450
OD450 at 2.67 nM [1]: 1.12 OD450
OD450 at 13.33 nM [1]: 1.12 OD450
OD450 at 66.66 nM [1]: 1.16 OD450
EC50 [2]: 0.736 nM
Max MFI [2]: 4540 MFI

B6: hAb005LH3L1a (antibody, human IgG1, V domains shown)
VH: B8 VH with M48I, V68A, M70L
VL: DIVMTQTPLSLPVTPGEPASISCRSSQSLVHSDGNTYLHWYLQKPGQSPQLLIYKVSNRFSGVPDRFSGSGSGTDFTLKISRVEAEDVGVYYCSQNTHVPPTFGGGTKVEIK
notes: Humanized F3.54.12; VH H3 + VL L1a; expressed as human IgG1
OD450 at 0.0008 nM [1]: 0.047 OD450
OD450 at 0.004 nM [1]: 0.049 OD450
OD450 at 0.02 nM [1]: 0.049 OD450
OD450 at 0.11 nM [1]: 0.05 OD450
OD450 at 0.53 nM [1]: 0.058 OD450
OD450 at 2.67 nM [1]: 0.101 OD450
OD450 at 13.33 nM [1]: 0.153 OD450
OD450 at 66.66 nM [1]: 0.402 OD450
EC50 [2]: 133 nM
Max MFI [2]: 136 MFI

B7: hAb007LH1L1d (antibody, human IgG1, V domains shown)
VH: B2 VH
VL: B2 VL with A34S
notes: Humanized F3.81.19; VH H1 + VL L1d; expressed as human IgG1
OD450 at 0.0004 nM [1]: 0.059 OD450
OD450 at 0.002 nM [1]: 0.057 OD450
OD450 at 0.011 nM [1]: 0.101 OD450
OD450 at 0.056 nM [1]: 0.16 OD450
OD450 at 0.28 nM [1]: 0.503 OD450
OD450 at 1.39 nM [1]: 1.1 OD450
OD450 at 6.94 nM [1]: 1.34 OD450
OD450 at 34.72 nM [1]: 1.31 OD450
EC50 [2]: 6.28 nM
Max MFI [2]: 18200 MFI
